Experimental data taken from the nanobody polyreactivity screen of Harvey et al. (2022).

Assay: yeast display, Sf9 membrane polyspecificity reagent, FACS + sequencing; frameworks hold sequencing errors
How it was run: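 Sorting gates, low and high (top ~1%), were placed on anti-HA fluorescence to track expression and on streptavidin fluorescence to track reagent binding. A clone's polyreactivity label is taken from the gate it came out of. The reagent was 10% biotinylated, detergent-solubilized Sf9 membrane, applied for 1 hour at 4 °C to galactose-induced yeast display cells.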

Sequence	polyreactivity (PSR sort gate)
QGQLVESGPVLVQAGCSLRLSSAASGYTFGWYAMGWYRQAPGKLRELVAGISSAGSTNYADSVNGRFTISRDNANINVYLQMNSLKPEDTAVYYCAAEVRYWFLADDYWGQGTQVTVSS	high polyreactivity
QGQLVESVGGLVQAGVSLRLSCAASGRIFPSYAMGCYRPAPGKERELVAAISSSGGRTYYADSVKGRFTISRDNAKNTVYLQMNSLKPEDTAVYYCAARWVHYGVRYDYWGPGTQVTVSS	high polyreactivity
QGQRVESGGGLVQAGCSLRLSSAASGSTFNEYTLGWYRQAPGKERELVAAIRASDGSTFYADTVKGRFTISRDYAKNSVYFQMNSLKPEDTSVYYCPADYYWNDYWGQGTQVTVSS	low polyreactivity
QGQVVESGGGLVQAGGSLRLSCAASGSTFYGYAMGWYREAAGKERELVAAISRDGSTNYADSVKGRFTISRDNAKNTVYLQMNSLKPEDTAVYYCATRTKKRAPYKFYSWGQGTQVTVSS	high polyreactivity
QHQLVESGGGLVQAGGSLRLSCAASGRTSLDYAMGWYRQAPGKERELVSAIRSGGITNYADSVKGRFTISRDNAKNTVYLQLNSLKPEDTAVYYCAARVHRAYSTGSIVYYWGQGTQVNVSS	high polyreactivity
QIKLEESGGGLVQAGGSLRISCAASGSTYWDKVMGWYRQAPGKEMELVAAIDSGGSTYYADSVKGRFTISRDNAKNTVYLLMNSLKPEDTEVYYCNSRVDTPSPYDYWGQGTQVTVSS	low polyreactivity
QIQLEESGGGLVQAGGSLRLSCAASGSIFSVYAMGWYRQAPGKERELVATISTGGSTYYADSVKGRFTISRDNAKNTVYLQMNSLKPEDTAVYYCNAQFTPRYWGGYDSWGQGTQVTVSS	low polyreactivity
QIQLEESVGGLVQAGGTLRLSCASSGFTFYINVMGWDRQAPGKERELVAAISGTGGTNYADSVKGRFTISRDNAKNTVYLQMNSLKPEDTAVYYCARDYYVYSTGHVPLDYWGQGTQVTVSS	low polyreactivity
QIQLVESGGGLVQAGGSLRLSCAASGGIFYINAMGWYRQAPGKERELVAAITESSDITYYADSVKGRFTISRDNAKNSVYLQINSLKPEDTAVYYCAAEFVRSGDDYWGQGTQVTVSS	low polyreactivity
QIQLVESGGWLVQAGGSLRLRCAASGNTIHWNVMVWYRQPPGKERELVATITFSGSSTYYADSVKGRFTISRDNAKNTVYLQMNSLQPEDTAVYFCNATRYRLRPSGVRYKYNYWGQGTQGTVSS	low polyreactivity
QLHLQESGGLVQAGGLRLSCAASGSVSYQEAMGWYRQAPGKERELVATISFGANTNYADSVKGRFTISRDNAKNTVYLQMNSLKPEDTAVYYCAAESLFDDYYGYWGQGTQVTVSS	low polyreactivity
QLHLQVSGGGLVQAGGSLRLSCAASGSIFLTSEKGWYRQAPGKERELVAAIATGTSTNYADSVKGRFTISRDNAKNTVYLQLNSLKPEDTAVYYCATYDYWGQGTKVTVSS	low polyreactivity
QLKLVESGGGLVQAGGSLRLSCAASGSIFDVNAMGWYREAPGKEMELVAAISDSGGSTYYADSVKGRFTISRDNAKNTVYLQMNSLKPEDTAVYYCNADWSWYHYYDCDYWGQGTQVTVSS	low polyreactivity
QLQHVESGGGLVQAGGSLRLSCAASGGIFGIYAMGWYRQAPGKESELVAAISRRGGSTYFADSVKGRFTISRDNAKNTVYLQMKSLKPADTAVYYCAAVRRGVNTSFGYRPLNYWGQGTEVTVSS	high polyreactivity
QLQHVESGGGLVQAGGSLRLSCAASGSTFYRNAMGWYRQAPGKDRELVAAISRGSRTYYADSVKGRFTISRDNAKNTVYLQMNSLKPEDTAVYYCAALYGSRSTYHMDDYWGQGTQVTVSS	high polyreactivity
QLQHVETGGGLVQAGGSLRLSCAASGRIFIRNHMGWYRQAPGKERELVAVITRSGGRTYYADSVKGRFTISRDNANNTVYLQMNRVKPEDTAVYYCAKRQAFKQATYDYWGQGTQVTVSS	low polyreactivity
QLQLEESGGGLVQAGGSLRLSCAASRRIIVGYAKGRYRQAPGKEREFVAAITFRGGTTYYADSVKGRLTISRDNAKNTVYLQMNSLNQEDSAVYYCAVPHYLYSVEFGYWGQGTQVTVSS	low polyreactivity
QLQLGESGGGLVQAGGSLRLSCAGSGSIFNYYAMGWYRQATGKERELVAAITSGGSTYYADSVKGRFTISRDNAKNTVYLQMNSLKPEDTAVYYCNKAFPYIYEYWGQGTQVTVSS	low polyreactivity
QLQLQEGGGGLLQAGGSLRLSCAASGYISYGDVMGWYRQAPGEERELVASIGLDATTNYADSVKGRFTISRDNSKNTVYLQMNSLKPEDTAVYYCPADRGAPFSLHYWGQGTQVTVSS	high polyreactivity
QLQLQESSGGLVQAGGSMRMTCAASGTIFHFHIMGWYRPAPGKEREFVAAISYGTSTYYADSVKGRFTISRDNAKNTVYLQMNSQKPEDTAVYYCAVYDYLEVYCWYWGQGTQVTVSS	low polyreactivity
QLQLVDSGGGLVQAGGRLSLSCAASGSIFYRYAMGWYIQAPGKERELVAAITSGGRTYYADSVKGRFTISRDNAKNTVYLQMNSLNPEDTAVYFCNAVYRKTSYGYWGQGTQVTVSS	high polyreactivity
QLQLVDSGGGLVQAGGSLRLSCAASGRTFRIYAMGWYRKAPGKERELVASITGGGTTNYADSVKGRFTISRDNAKYTVYLQMNSLKPEDTAVYYCAARSRTRPNVPGYGYWGQGTQVTVSS	high polyreactivity

Sequence	polyreactivity (PSR sort gate)
QLQLVESCGGLFQAGGSLRLSCADSGSTFGDHAMGCYRQAPGKERELVAVITSDTSTYYADSLKWRLTISRDNAKNTVYLQMNSMKPEDTAVYYCAADWGGLWFWYEYWGQGTQVTVSS	low polyreactivity
QLQLVESCGVLVQAGGSLRLSCAASGRTHGNNAMGCYRQAPGKERELVAITYRGGSTYYADSVKGRFTISRDNAKNTVYLQMNSLKPEDTAVYYCNVDIISKVDTNKYEYWGQGTQVTVSS	low polyreactivity
QLQLVESGGGLGQAGGRLRLSCAASGSTFGRYAKGCYIQAPGKERELVAAITSDTGNTNFADSVKGRLTISRDNAKNTVYLQMNSLKPEDTAVYYCAAATFWVLWGDVIGNYDSWGQGTQVTVSS	low polyreactivity
QLQLVESGGGLVQAGGRLRLSCAASGLNFYDNMGWYRQPPGKEREFVAAISSSGGSTSYADSVKGRFTISRDNAKNTVYLQMNSLKPEDRAVYYCAADSYPAYLGFVGFDYWGQGTQVTVSS	low polyreactivity
QLQLVESGGGLVQAGGRLRLSCAASGRTLGKYAMGWYRQAPGKEREFVAAISSSGSRTFYADSVKGRFTISRDNAKYTVSLQMNSLKPEDTAVYYCAADYYSRGYGYWGQGTQVTVSS	high polyreactivity
QLQLVESGGGLVQAGGSLPLTCAASGRTFARNAMGWYRQAPGKERELVARISRRAGSTYYADSVKGRFTISRDNAKNTVYLQMNSLKPAETAVYYCNAGPPYSYARDYWGQGTQVTVSS	high polyreactivity
QLQLVESGGGLVQAGGSLRLSCAANGSTFWIYAMGWYRQAPGKERELVAAITLRSGSTYYADSVKGRFTMSRDNAKNTVYLQMNSLKPEDTAVYYCATDSWGVDRPNYNYWGQGTQVTVSS	low polyreactivity
QLQLVESGGGLVQAGGSLRLSCAASGFIFSTYAMGWYRQAPGKERELVAAISRSGGSTYYADSVKGRFTISRDNAKNTVYLQMNSLKPEDTAVYYCNLSQAAFRTGYDYWGQGTQVTVSS	high polyreactivity
QLQLVESGGGLVQAGGSLRLSCAASGFTFGVYAKGWYRQAPGKEREFVAAISWRGGSTYYADSVKGRFTISRDNAKITVYLQMNSLKPEDTAVYYCAADVLERGYGHYNYWGQGTQVTVSS	high polyreactivity
QLQLVESGGGLVQAGGSLRLSCAASGGIFGYYTMGSYRQAPGKEREFVAAITSRGGSTYYADSVKGRFTISRDTAKNTVYLQMNSLKPEDTAVYYCAARRQRDRYGYWGQGTQVTVSS	high polyreactivity
QLQLVESGGGLVQAGGSLRLSCAASGHIFDANVMGWSRQAPGKERELVAAISSGGRTKYADSVKGRFTISRDNAKNTVYLQMNSLKPEDTAVYYCAKKHFPLYDYWGQGTQVTVSS	low polyreactivity
QLQLVESGGGLVQAGGSLRLSCAASGLIFRYYTMGWYRQAPGKERELVATITRGDSTYYADSVKGRFTISRDNAKNTVYLQMNSLKPEDTAVYFCAAAGWSRVGYWLKYDYWGQGTQVTVSS	high polyreactivity
QLQLVESGGGLVQAGGSLRLSCAASGLIFTTNAMGWYRQAPGKEREFVAAISPSGGSTYYADSVKGRFTISRDNAKNTVYLQMKSLKPEDTAVYYCAKRPYVGYDWGQGTQVTVSS	high polyreactivity
QLQLVESGGGLVQAGGSLRLSCAASGLTFYSYPMGWYRQARGKERELVATIRSSGGSSYYADSVKGRFTISRDNAKNTVYLQMNSLKPEDTAVYYCAARWGPYAFTYVRTYDYWGHGTQVTVSS	low polyreactivity
QLQLVESGGGLVQAGGSLRLSCAASGNTFYGYTMGWYRQAPGTERELVAVISSSGGRTNYADSVKGRFTISRDNAKNTVYLQMNSLKPEDTAVYYCAARSSRLPHIYGYWGQGTQVTVSS	low polyreactivity
QLQLVESGGGLVQAGGSLRLSCAASGRIFGKNDMRSYRQAPGKERELVAAITTSGGSTDYADSVKGRFTISRDKAKNTVYLQMNSLKPEDTAVYYCNAAFQNKAYIRKYKYDYWGQGTQVTVSS	low polyreactivity
QLQLVESGGGLVQAGGSLRLSCAASGRIFYQTAMGWYRQAPGKERELVADIASGGSTYYADSVKGRFSISRDNAKNTVHLQMNSLKREDTAVDYCATAVLYGDGWYYYWGQGTQVTVSS	low polyreactivity
QLQLVESGGGLVQAGGSLRLSCAASGRILRYYTMGWYRQAPGKERELVAAISRSGGGTYYADSVKGRFTISRDNANNTVDIEMYSLIPEDTSVYYCAAYKPSPYSSDYDYWGEGTQVTVSS	high polyreactivity
QLQLVESGGGLVQAGGSLRLSCAASGRTFAIYAMGWYRQAPGKERELVAAIRKRGSITYYADSVKGRFTISRDNAKNTVYLQMNSLKPDATAVYYCAVDYWGQGTQVTVSS	high polyreactivity
QLQLVESGGGLVQAGGSLRLSCAASGRTFDDYAMGWYRQAPGKERELVAAISGSAGSTYYADSVKGRFTISRDNAKNTVYLQMNSLKPEDTAVYYCARGYGTYPLYYQYLAYYYWGQGTQVTVSS	low polyreactivity
QLQLVESGGGLVQAGGSLRLSCAASGRTFQGYAMGWYRQAPGKERELVAAISRSGGRTYYADSVKGRFTISRDNAKYTVYLQMNSLKPEDTAVYYCCTEAFRDYGYWGQGTQVTVSS	high polyreactivity
